Changes are numbered by the printed parent chain. Numbers in names are those of the source.
B1: L46A human Macrophage Migration Inhibitory Factor (natural protein, UniProt P14174 1-115, looked up)
chain: MPMFIVNTNVPRASVPDGFLSELTQQLAQATGKPPQYIAVHVVPDQAMAFGGSSEPCALCSLHSIGKIGGAQNRSYSKLLCGLLAERLRISPDRVYINYYDMNAANVGWNNSTFA
notes: initiator methionine cleaved, measured mass 12303 g/mol; numbers count on: the mature protein starting at Pro-1 (without the initiator methionine); No tag is named; also called L46A huMIF; L46A MIF; source: more than 95% pure
B2: L46F human Macrophage Migration Inhibitory Factor (natural protein, UniProt P14174 1-115, looked up)
chain: B1 chain with A47F
notes: initiator methionine cleaved, measured mass 12379 g/mol; numbers count on: the mature protein starting at Pro-1 (without the initiator methionine); No tag is named; also called L46F huMIF; L46F MIF; source: more than 95% pure
B3: L46G human Macrophage Migration Inhibitory Factor (natural protein, UniProt P14174 1-115, looked up)
chain: B1 chain with A47G
notes: initiator methionine cleaved, measured mass 12289 g/mol; numbers count on: the mature protein starting at Pro-1 (without the initiator methionine); No tag is named; also called L46G huMIF; L46G MIF; source: more than 95% pure

Target: the molecule itself
Test: AUC; sedimentation velocity, 50,000 rpm, 20°C, PBS 1X pH 7.4, protein 5-50 µM (15 µM in Figure 3); c(s) analysis with SEDFIT; oligomeric state of the protein with itself

Protein | stoichiometry N
B1 | 3
B2 | 3
B3 | 3
